Data as given in the supplement of paper PMC9170038.

System: MS2 coat protein
Assay: apparent KD of MS2 coat protein; designed switch direction (-1 OFF switch, 1 ON switch): -1; higher = weaker reporter binding
Summary of the method: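 An oligonucleotide input, 200 uM small-molecule ligand, or no input was present during titration of SNAP-549-labelled MS2 coat protein, which was doubled from 0.7 or 1.5 nM to 3 µM. Designed RNA switches had been transcribed on Illumina chips by stalled E. coli RNA polymerase. Apparent KD per design is the median over clusters of curves fitted to normalised cluster fluorescence.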

[1] = Eterna round: R95, input ligand: FMN 200 uM
[2] = Eterna round: R95, input ligand: microRNA oligo, concentration not stated
[3] = Eterna round: R95, input ligand: none

Sequence	apparent KD of MS2 coat protein [1]	apparent KD of MS2 coat protein [2]	apparent KD of MS2 coat protein [3]	apparent KD of MS2 coat protein (input ligand: FMN 200 uM)	apparent KD of MS2 coat protein (input ligand: none)	apparent KD of MS2 coat protein (input ligand: microRNA oligo, concentration not stated)
GAUUAUGCAAGCUUUUGGGACAUGAGGAUCACCCAUGUUCGUCUUAUUGAUCUAGGUACGCUGACGUACCUAGAUCU [JL-sv1-2.32 Brourd mod] (puzzle: Sensor v3, turn-off variant 1)	18.1 nM	62.2 nM	17.6 nM	–	–	–
GAUUAUGCGAGCUUUAGGGACAUGAGGAUCACCCAUGUUCGUCUUAUUGGUCUAGAUGCACUAACAUACCUAAAUCU [JMF 26] (puzzle: Sensor v3, turn-off variant 1)	18 nM	24.4 nM	18.2 nM	–	–	–
GAUUCGCGAGGAUAUACAGUCGAGUCCAUUACGUGUCUCGGACUUGAGGAUCACCCAAGUAGAAGGCGUCUCAU [salish99_ex2_r4_637] (Eterna round: R97, puzzle: Exclusion 2)	–	–	–	55.8 nM	57.8 nM	–
GAUUGACAUGAGGAUCACCCAUGUGAGGAUAUCGGCCGGACCGUGUUAGCUUCCGUCGCGAGAAGGCGCAUAGG [Exclusion 1 V38] (puzzle: Exclusion 1)	42.3 nM	42.8 nM	36.7 nM	–	–	–
GAUUGACAUGAGGAUCACCCAUGUGAGGAUAUCGUCUGGUACGUGUUGGCUGGCAUCUCGAGAAGGCGCAUAGG [Exclusion 1 V56] (puzzle: Exclusion 1)	103 nM	59.4 nM	76.4 nM	–	–	–
GAUUUGUAAGGAUAUCGUGCAAGUUUCAAAAGAGGCUUGUGCGAGAAGGUACAUGAGGAUCACCCAUGUAGGUU [Omei Ex4 B13] (Eterna round: R97, puzzle: Exclusion 4)	–	–	–	42.6 nM	24.1 nM	–
GCAAGAGCAGGAUAUCUAAUAUAUCACAUGAGGAUCACCCAUGUCCAGCGAAAGCUGGAGGGAGAAGGGCUCUUGC [Mat - Exclusion 5 - Eli mod - D101] (puzzle: Exclusion 5)	58.9 nM	123 nM	150 nM	–	–	–
GCAAGCUUUUUCAAUAACAACAUGAGGAUCACCCAUGUUUAAGCUAUUACUUUUGGGCUCUUUAGUGCUAGUCUUAU [JR_STOV1_Sub037] (Eterna round: R97, puzzle: Sensor, turn-off variant 1)	–	–	–	19.1 nM	17.7 nM	–
GCACAGGCAGGAUAUACAUGAGGAUCACCCAUGUGAUCCCUUAAGUACAAAAGUACUAGUAGAAGGGCCUGUGC [Omei Ex3 Model Bachelor's Dilema v47] (Eterna round: R97, puzzle: Exclusion 3)	–	–	–	646 nM	1210 nM	–
GCACAGUGAGGAUAUACAUGAGGAUCACCCAUGUCCGCCGAUUAAGAGGUAUCAACGUGUAGAAGGUACCAGCG [Eternabot (Original) Solution 25] (Eterna round: R97, puzzle: Exclusion 3)	–	–	–	17.2 nM	18.5 nM	–
GCACGAAGUGUAGGAUAUCUGUGCGAUUAGCUCAGAGAAGGACACAUGAGGAUCACCCAUGUGUUCCGCGGAAGCAAAACGUGC [Eli exng1 - 056] (Eterna round: R96, puzzle: Exclusion NG 1)	–	–	–	11.2 nM	11.4 nM	9.08 nM
GCACGACAUGAGGAUCACCCAUGUGAGGAUAUUUAGACGCCUGUGAAUGCAGCCAUUUAGAGAAGGCAUUGGGU [Eternabot (L1) Solution 99] (Eterna round: R97, puzzle: Exclusion 1)	–	–	–	129 nM	43.9 nM	–
